Experiment: yeast display, Sf9 membrane polyspecificity reagent, FACS + sequencing; frameworks hold sequencing errors
How it was run: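 A nanobody's polyreactivity label depends on the gate it was sorted from. Yeast display cells were stained with 10% biotinylated, detergent-solubilized Sf9 membrane reagent for 1 hour at 4 °C, enriched on streptavidin microbeads and sorted by FACS. The low and high (top ~1%) gates were set on anti-HA fluorescence for expression and streptavidin fluorescence for reagent binding.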

Row | Sequence | polyreactivity (PSR sort gate)
1 | QVQLVESGGGLVQAGGSLRLSGAASGGTFDYYAMGRYRQAPGKERELVAAISTSGGRTYYADSVKGRFTISRDNAKYTVYLQMNSLKPEDTAVYYCAALSPRAKYASFYYWGQGTQVTVSS | high polyreactivity
2 | QVQLVESGGGLVQAGGSLRLSGAASGRIFQRYVMGWYRQAPGKERELVAAISYSGARTYYADSVKGRFTISRDNAKNTVYLQMNSLKPEDTAVYYCAARIRNWPAMDYWGQGTQETVSS | high polyreactivity
3 | QVQLVESGGGLVQAGGSLRLSGAASGRTFRGNVMGWYRQAPGKEREFVAAITKSDGSTYYADSVKGRFTISRDNAKNTVYLQMNSLKPEDTAVYYCAARTARTGWPWFRYDYWGQGTQVTVSS | low polyreactivity
4 | QVQLVESGGGLVQAGGSLRLSGAASGRTFRKYAMGWYRQAPGKERELVAAISWSGGSTYYANSVKGRFTISRDNAKNTVYLQMNSLKPEDTAVYYCAAVPVHTGSLYWGFTTGYDYWGQGTQVTVSS | low polyreactivity
5 | QVQLVESGGGLVQAGGSLRLSGAASGRTFYQYAMGWYRQAPGKARELVAAISWSDGSTSYADSVKGRFTISRDNAKNTVYLQMNSLKPEDTAGYYCAKDWTGTKAIEYDYWGQGTQVTVSS | low polyreactivity
6 | QVQLVESGGGLVQAGGSLRLSGAASGRTLYGYAMGWYRQAPGKERELVARITGRDGSTDYADSVKGRFTISRDNAKNTVYFPMNSLKPEETAVYSCNARVRFHWYRSDYWGQGTEVTVSS | high polyreactivity
7 | QVQLVESGGGLVQAGGSLRLSRAASGFIFVQNAMVWYRQAPGKERELVASLTSGGTTNYADSVKGRFTISRDNAKNTVYLQMNSLKPEDTAVYYCNARLERTPSLYLYGSWGQGTQVTESS | low polyreactivity
8 | QVQLVESGGGLVQAGGSLRLSRAASGRTFRTYAMGWYRQAPGKERELVAAITSGGNTYYADSVKGRFTISRDNAKNTVYLLMNSLKPDDTAVYYCAAAASGFSRYRSTTWGQGTQGTVSS | high polyreactivity
9 | QVQLVESGGGLVQAGGSLRLSRAASGSIFKYYAMGWYRQAPGKERELVAAITYSGGSTFYADSVKGRFTISRDNAKNTVYLQMNSLKPEDTAVYYCNKVYKSYYWGGYDWGQGTQVTVSS | high polyreactivity
10 | QVQLVESGGGLVQAGGSLRLSSAASGFIFIINAMGWYRQAPGKEREFVAAITGSGGSTYYADSVKGRFTISRDNAKNTVYLQMNSLKPEDTAVYYCANVGPYYSGKVYGRTYYSRYGYWGQGTQVTVSS | low polyreactivity
11 | QVQLVESGGGLVQAGGSLRLSSAASGFIFKYNAMGWYRKAPGKERELGAAITWSGGSTYYADSVKGRFTISRDNAKNTVYLQMNSLKPEDTAVYYCAARPYRTKLIYGYWGQGTHVTVSS | high polyreactivity
12 | QVQLVESGGGLVQAGGSLRLSSAASGFIFPDYAMGWYRQAPGKERELVAAISFRDGSTYYADSVKGRFTISRDNAKNTVYLQMNSLKPEDTAVYFCAVRQVNWFGIGYEDDYWGQGTQVTVSS | low polyreactivity
13 | QVQLVESGGGLVQAGGSLRLSSAASGFIFRGYAMGWYRQAPGKERELVAVISRSGTSTYYADSVKGRFTFSRDNAKNTVYLQMNSLKPEDTAVYYCAVLNYAGKYYYWGQGTQVTVSS | high polyreactivity
14 | QVQLVESGGGLVQAGGSLRLSSAASGFIFSYNAMRWYRQARGKERELVAAITYSDGGTYADSVKARFTISRDNAKNTVDLQMHSLKPEDTAVYYCARRQVLYSRDFEYDYWGQGTLVTVSS | low polyreactivity
15 | QVQLVESGGGLVQAGGSLRLSSAASGFIFTDYAMGWYIEAPGKEREFVAAIDWSGGNTYYADSVKGRFTISRDNAKNTVYLQMNSLKPEDTAVYYCAASGSAREYDYWGQGSQVTVSS | low polyreactivity
16 | QVQLVESGGGLVQAGGSLRLSSAASGFIFVGNAMGWYRQAPGKERELVATISGADSTNYADSVKGRFTISRDNAKNTVYLQMNSLKPEDTAVYDCAKEGYSYFDGNYGPYRYDYWGQGTQVTVSS | low polyreactivity
17 | QVQLVESGGGLVQAGGSLRLSSAASGFILGYNTMGWYRQAPGKESELVAAINLSGASTYYADSVKGRFTISRDNAKNTVYLQMNSLKPEDTAVYYCGVRFYSGPGGYPTTRYYYWGQGTQVTVSS | high polyreactivity

Source: the nanobody polyreactivity screen of Harvey et al. (2022)
